Drawing on article doi:10.1101/2021.09.24.461759, this text covers stoichiometry N for one substance.

This test addresses pre-fusion, protease-resistant, trimeric transmembrane (TM)-deleted spike (S) glycoprotein from SARS-CoV-2 (SARS-CoV-2 (Wuhan-Hu-1) | not stated). In words: SEC + other: SDS-PAGE.

The term stoichiometry N denotes a count of units in the complex or per binding partner. Turning to “pre-fusion, protease-resistant, trimeric transmembrane (TM)-deleted spike (S) glycoprotein from SARS-CoV-2”, the stoichiometry N worked out at 3.
